Assay results reported in patent US10717774B2, “Compositions and methods for treating cancers” (Kiromic, Inc., priority 2016, dated 2020).

Assays:
Assay type in all cases: cell-based, human
[1] = tested on: ovarian cancer cell line SKOV3; assay: MTT assay in SKOV3; conditions: for combined effect with Pax compared to Paclitaxel alone by MTT assay: 20 μg/mL 48 hours plus Paclitaxel 100 nM for the last 24 hours; for viability of metabolically-active cells (MTT): protein alone, 20 μg/mL, 48 hours, compared to the control cells
Experimental: (§1) The human multiple myeloma cell line U266, ovarian cancer cell line SKOV3, and acute monocytic leukemia cell line THP1 were cultured in RPMI 1640 with 10% FBS. The breast cancer cell line MCF7 was cultured in Dulbecco's modified Eagle's medium (DMEM) with 10% FBS. Drugs were purchased from Merck Millipore and used at the following concentrations: Bortezomib (Bor) 5 nM; Cytarabine (Ara-c) 3.87 μM; Rapamycin (Rapa) 100 nM; Paclitaxel (Pax) 100 nM.
(§2) Cells were seeded in 96-well plates, at a volume of 100 μL cell suspension/well, in quadruplicate. SKOV3 and MCF7 cells were seeded at a density of 100,000 cells/mL. THP1 cells were seeded at a density of at 200,000 cells/mL; whereas, U266 cells were seeded at a density of 300,000 cells/mL. Cells were then treated with CBPI1 or CBPI2 at 20 μg/mL for 48 hours. For the last 24 hours, the appropriate drugs were added. Cell viability was subsequently assayed after 48 hours of incubation with 0.6 mg/mL MTT ((3-(4,5-dimethylthiazolyl-2)-2,5-diphenyltetrazolium bromide; Sigma-Aldrich) for 4 hours. Formazan crystals were dissolved in […] 0.01N HCL/isopropanol. Specific absorbance was measured at 570 nm with subtraction of background at 690 nm.
(§3) Data are represented as means±SD from at least three (3) independent experiments. ***^=P<0.001; **^=P<0.01; *^=P<0.05.

[2] = tested on: acute monocytic leukemia cell line THP1; assay: Detection of apoptosis (Annexin-V FITC / propidium iodide flow cytometry) in THP1; conditions: 20 μg/mL 48 hours, in combination with Ara-C 3.87 μM for the last 24 hours; compared to the control cells
Experimental: as §1
(§4) Cells were seeded in 48-well at the same concentrations for the MTT assay. The cells were treated with CBPI1 or CBPI2 at 20 μg/mL for 48 hours. For the last 24 hours, the appropriate drugs were added. […] Finally, 400 μL of Binding Buffer 1× were added to the tube and samples were processed and analyzed using the BD FACSVerse™ System (BD Biosciences). […]
(§5) FIG. 6—After the indicated treatments, the cells were analyzed for apoptosis by flow-cytometry. Plots represent the relative of fluorescence intensities in the green (FL1, horizontal axis) and red (FL2, vertical axis) channels. […] Red fluorescence is thus picked up by the flow-cytometer in the FL2 channel. Each dot represents a fluorescent signal (cell), detected by the flow-cytometer. […]

[3] = tested on: multiple myeloma cell line U266; assay: MTT assay in U266; conditions: protein alone, 20 μg/mL, 48 hours
Experimental: as §1, §2, §3

[4] = tested on: ovarian cancer cell line SKOV3; assay: Detection of apoptosis (Annexin-V FITC / propidium iodide flow cytometry) in SKOV3; conditions: for apoptotic rate of SKOV3 cells: 20 μg/mL 48 hours, combined with Paclitaxel (Pax) 100 nM for the last 24 hours, compared with Paclitaxel alone
Experimental: as §1
Cells were seeded in 48-well at the same concentrations for the MTT assay. The cells were treated with CBPI1 or CBPI2 at 20 μg/mL for 48 hours. For the last 24 hours, the appropriate drugs were added. After 48 hours, the cells were washed with cold 1×PBS, resuspended in “Binding buffer 1×” (i.e., HEPES 0.01M; NaCl 0.14M; and CaCl2 2.5 mM) and incubated for 15 minutes with Annexin-V FITC (BD Biosciences)+Propidium Iodide (2.5 μg/mL final; Sigma-Aldrich) in the dark. Finally, 400 μL of Binding Buffer 1× were added to the tube and samples were processed and analyzed using the BD FACSVerse™ System (BD Biosciences).
as §3
FIG. 6—After the indicated treatments, the cells were analyzed for apoptosis by flow-cytometry. Plots represent the relative of fluorescence intensities in the green (FL1, horizontal axis) and red (FL2, vertical axis) channels. The apoptosis detector, Annexin-V, is linked to a green fluorescent molecule (FITC), and produces a fluorescent signal in the FL1 channel. Cells in late apoptosis are unable to pump propidium iodide (PI) out of the cytoplasm, and are therefore red fluorescent. Red fluorescence is thus picked up by the flow-cytometer in the FL2 channel. Each dot represents a fluorescent signal (cell), detected by the flow-cytometer. Each dot-plot is divided into 4 quadrants. From bottom-left and proceeding counter-clockwise, these are Q1, Q2, Q3, and Q4. […]

[5] = tested on: multiple myeloma cell line U266; assay: Detection of apoptosis (Annexin-V FITC / propidium iodide flow cytometry) in U266; conditions: 20 μg/mL 48 hours, combined with Bortezomib (Bor) 5 nM for the last 24 hours; compared with Bor alone
Experimental: as §1, §4, §5

[6] = tested on: breast cancer cell line MCF7; assay: MTT assay in MCF7; conditions: protein alone, 20 μg/mL, 48 hours
Experimental: as §1, §2, §3

[7] = tested on: breast cancer cell line MCF7; assay: Detection of apoptosis (Annexin-V FITC / propidium iodide flow cytometry) in MCF7; conditions: protein alone, 20 μg/mL, 48 hours; compared to the control cells
Experimental: as §1, §4, §5

[8] = tested on: acute monocytic leukemia cell line THP1; assay: MTT assay in THP1; conditions: protein alone, 20 μg/mL, 48 hours
Experimental: as §1, §2, §3

Molecule	combined effect with Pax compared to Paclitaxel alone by MTT assay [1]	viability of metabolically-active cells (MTT) [1]	apoptotic rate of THP1 cells [2]	viability of metabolically-active cells (MTT) [3]	apoptotic rate of SKOV3 cells [4]	U266 cells apoptosis rate [5]	viability of metabolically-active cells (MTT) [6]	MCF7 cells apoptotic rate [7]	apoptosis in ovarian cancer cells ([4]; protein alone, 20 μg/mL, 48 hours, SKOV3)	viability of metabolically-active cells (MTT) [8]
CBPI1: novel Gal-3 N-terminal truncation protein, identical in sequence to native Gal-3 amino acids 109-250 (protein) APAGPLIVPYNLPLPGGVVPRMLITILGTVKPNANRIALDFQRGNDVAFHFNPRFNENNRRVIVCNTKLDNNWGREERQSVFPFESGKPFKIQVLVEPDHFKVAVNDAHLLQYNHRVKKLNEISKLGISGDIDLTSASYTMI	not evident	significantly decrease	significantly increase	significantly decrease	significantly increase	–	–	–	–	–
CBPI2: novel Gal-3 N-terminal truncation protein, deletes amino acids 1-112, substitutions P113A, L114V, Y118N, and T248N (protein) AVIVPNNLPLPGGVVPRMLITILGTVKPNANRIALDFQRGNDVAFHFNPRFNENNRRVIVCNTKLDNNWGREERQSVFPFESGKPFKIQVLVEPDHFKVAVNDAHLLQYNHRVKKLNEISKLGISGDIDLTSASYNMI	not evident	significantly decrease	significantly increase	significantly decrease	significantly increase	significantly increase	significantly decreases	significantly increases	effective in causing apoptosis	significantly decreases
